Measurements as given in article PMC2606027 (2009).

B1: LEDGF IBD fused to Gal4 transcription activation domain (WT prey) [human] / Full-length HIV-1 IN fused to the DNA binding domain of Gal4 (WT bait) [HIV-1] (parent complex)
chain 1: SMDSRLQRIHAEIKNSLKIDNLDVNRCIEALDELASLQVTMQQAQKHTEMITTLKKIRRFKVSQVIMEKSTMLYNKFKNMFLV
chain 2: not shown

Variants of: B1
Experiment: yeast two-hybrid (β-galactosidase reporter); S. cerevisiae Y187; quadruplicate measurements; read off a plot

Variant | percent of parent
chain 1 D20N | ~1.2 % of WT/WT
chain 1 K55E, chain 1 K56E, chain 1 R59E | ~1.4 % of WT/WT
chain 1 K55E, chain 1 K56S, chain 1 R59E | ~1.3 % of WT/WT

Variants of: B1
Experiment: yeast two-hybrid (β-galactosidase reporter); S. cerevisiae Y187; quadruplicate measurements

Variant | percent of parent
chain 1 K46E | 129 % of WT/WT
chain 1 K14E | 139 % of WT/WT
